# Results published in patent US20200347130A1 (JIANGSU HENGRUI MEDICINE, published 2020).
# T1: CD96 extracellular region with His tag (CD96-His) (human, UniProt P40200 22-519)
# T1 construct: also called CD96-ECD-His; Bio-CD96-His (biotin-labelled form)
# T1 sequence: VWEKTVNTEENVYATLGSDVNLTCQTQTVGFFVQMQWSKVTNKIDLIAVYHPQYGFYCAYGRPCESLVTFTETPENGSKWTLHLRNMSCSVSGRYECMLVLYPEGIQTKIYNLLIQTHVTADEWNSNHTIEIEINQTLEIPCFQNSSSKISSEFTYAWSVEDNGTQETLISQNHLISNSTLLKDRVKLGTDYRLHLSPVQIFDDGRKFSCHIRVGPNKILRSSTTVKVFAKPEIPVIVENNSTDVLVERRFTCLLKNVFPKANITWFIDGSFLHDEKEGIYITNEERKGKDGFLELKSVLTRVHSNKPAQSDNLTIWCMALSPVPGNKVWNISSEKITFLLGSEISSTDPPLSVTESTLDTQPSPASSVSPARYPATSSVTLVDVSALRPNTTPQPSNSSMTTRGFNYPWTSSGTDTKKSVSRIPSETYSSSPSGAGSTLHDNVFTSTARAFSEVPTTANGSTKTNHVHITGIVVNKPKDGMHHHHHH
# Biological target: T1, CD96 extracellular region with His tag …
# Experiment: SPR (Biacore), antibody captured, CD96-ECD-His as mobile phase
# Description: Protein A biosensor chip was used to capture antibodies to be tested, then CD96 antigen was flowed on the surface of the chip, and real time reaction signal was detected by Biacore to obtain the binding and dissociation curve. After the dissociation of each experimental cycle was completed, the biosensor chip was washed and regenerated with a glycine-hydrochloric acid regeneration solution (pH 1.5).
row,Binder,Kd
1,"h1718-007 (antibody, V domains shown, Only variable regions are tied to this name) VH: EVQLVQSGAEVKKPGASVKVSCKASGYTITDYNMNWVRQAPGQRLEWIGVINPSYGITDYNQNFKDRVTITVDTSASTAYMELSSLRSEDTAVYYCAIQLRLPGYFDVWGQGTTVTVSS VL: DIQMTQSPSSLSASVGDRVTITCKASQDINNYLNWFQQKPGKAPKTLIYRANRLVDGVPSRFSGSGSGQDYTLTISSLQPEDFATYYCLKYDEFPYTFGGGTKVEIK",3.88 nM
2,"h1718-013 (antibody, V domains shown, Only variable regions are tied to this name) VH: EVQLVQSGAEVKKPGASVKVSCKASGYTITDYNMNWVRQAPGQRLEWIGVINPSYGITDYNQNFKDRVTITVDTSASTAYMELSSLRSEDTAVYYCAIQLRLPGYFDVWGQGTTVTVSS VL: DIQMTQSPSSLSASVGDRVTITCKASQDINTYLNWFQQKPGKAPKTLIYRANRLVDGVPSRFSGSGSGQDYTLTISSLQPEDFATYYCLKYDEFPYTFGGGTKVEIK",4.08 nM
3,"h1718-008 (antibody, V domains shown, Only variable regions are tied to this name) VH: EVQLVQSGAEVKKPGASVKVSCKASGYTITDYNMNWVKQAPGQRLEWIGVINPSYGITDYNQNFKDKVTITVDTSASTAYMELSSLRSEDTAVYYCAIQLRLPGYFDVWGQGTTVTVSS VL: DIQMTQSPSSLSASVGDRVTITCKASQDINNYLNWFQQKPGKAPKTLIYRANRLVDGVPSRFSGSGSGQDYTLTISSLQPEDFATYYCLKYDEFPYTFGGGTKVEIK",3.37 nM
4,"h1718-019 (antibody, V domains shown, Only variable regions are tied to this name) VH: EVQLVQSGAEVKKPGASVKVSCKASGYTITDYNMNWVKQAPGQRLEWIGVINPSYGITDYNQNFKDKVTITVDTSASTAYMELSSLRSEDTAVYYCAIQLRLPGYFDVWGQGTTVTVSS VL: DIQMTQSPSSLSASVGDRVTITCKASQDINTYLNWFQQKPGKAPKTLIYRANRLVDGVPSRFSGSGSGQDYTLTISSLQPEDFATYYCLKYDEFPYTFGGGTKVEIK",3.7 nM
5,"h1718-018 (antibody, V domains shown, Only variable regions are tied to this name) VH: EVQLVQSGAEVKKPGASVKVSCKASGYTITDYNMNWVKQAPGQRLEWIGVINPSYGITDYNQNFKDKVTITVDTSASTAYMELSSLRSEDTAVYYCAIQLRLPGYFDVWGQGTTVTVSS VL: DIQMTQSPSSLSASVGDRVTITCKASQDINQYLNWFQQKPGKAPKTLIYRANRLVDGVPSRFSGSGSGQDYTLTISSLQPEDFATYYCLKYDEFPYTFGGGTKVEIK",3.82 nM
6,"h1718-020 (antibody, V domains shown, Only variable regions are tied to this name) VH: EVQLVQSGAEVKKPGASVKVSCKASGYTITDYNMNWVKQAPGQRLEWIGVINPSYGITDYNQNFKDKVTITVDTSASTAYMELSSLRSEDTAVYYCAIQLRLPGYFDVWGQGTTVTVSS VL: DIQMTQSPSSLSASVGDRVTITCKASQDINLYLNWFQQKPGKAPKTLIYRANRLVDGVPSRFSGSGSGQDYTLTISSLQPEDFATYYCLKYDEFPYTFGGGTKVEIK",3.41 nM
7,"h1718-014 (antibody, V domains shown, Only variable regions are tied to this name) VH: EVQLVQSGAEVKKPGASVKVSCKASGYTITDYNMNWVRQAPGQRLEWIGVINPSYGITDYNQNFKDRVTITVDTSASTAYMELSSLRSEDTAVYYCAIQLRLPGYFDVWGQGTTVTVSS VL: DIQMTQSPSSLSASVGDRVTITCKASQDINLYLNWFQQKPGKAPKTLIYRANRLVDGVPSRFSGSGSGQDYTLTISSLQPEDFATYYCLKYDEFPYTFGGGTKVEIK",4.31 nM
8,"h1721-007 (antibody, V domains shown, Only variable regions are tied to this name) VH: EVTLKESGPVLVKPTETLTLTCTVSGFSLSSYGVNWIRQPPGKALEWLGVIWGDGSTNYHSALISRLTISKDTSKSQVVLTLTNMDPVDTATYYCAKNYFYGSRYGYAMDSWGQGTTVTVSS VL: DIQMTQSPSSLSASVGDRVTITCRASENIYSSLAWYQQKPGKAPKLLVYNAKTLIEGVPSRFSGSGSGTDYTLTISSLQPEDFATYYCQHHYGTPYTFGGGTKVEIK",1.87 nM
9,"h1721-008 (antibody, V domains shown, Only variable regions are tied to this name) VH: EVTLKESGPVLVKPTETLTLTCTVSGFSLSSYGVNWVRQPPGKGLEWLGVIWGDGSTNYHSALISRLTISKDTSKSQVVLTLTNMDPVDTATYYCAKNYFYGSRYGYAMDSWGQGTTVTVSS VL: DIQMTQSPSSLSASVGDRVTITCRASENIYSSLAWYQQKPGKAPKLLVYNAKTLIEGVPSRFSGSGSGTDYTLTISSLQPEDFATYYCQHHYGTPYTFGGGTKVEIK",2.22 nM
10,"h1721-006 (antibody, V domains shown, Only variable regions are tied to this name) VH: EVTLKESGPVLVKPTETLTLTCTVSGFSLSSYGVNWIRQPPGKALEWLGVIWGDGSTNYHSALISRLTISKDTSKSQVVLTMTNMDPVDTATYYCAKNYFYGSRYGYAMDSWGQGTTVTVSS VL: DIQMTQSPSSLSASVGDRVTITCRASENIYSSLAWYQQKPGKAPKLLVYNAKTLIEGVPSRFSGSGSGTDYTLTISSLQPEDFATYYCQHHYGTPYTFGGGTKVEIK",2.29 nM
11,"h1721-005 (antibody, V domains shown, Only variable regions are tied to this name) VH: EVTLKESGPVLVKPTETLTLTCTVSGFSLSSYGVNWIRQPPGKALEWLAVIWGDGSTNYHSALISRLTISKDTSKSQVVLTMTNMDPVDTATYYCARNYFYGSRYGYAMDSWGQGTTVTVSS VL: DIQMTQSPSSLSASVGDRVTITCRASENIYSSLAWYQQKPGKAPKLLVYNAKTLIEGVPSRFSGSGSGTDYTLTISSLQPEDFATYYCQHHYGTPYTFGGGTKVEIK",2.25 nM
12,"h1721-001 (antibody, V domains shown, Only variable regions are tied to this name) VH: EVTLKESGPVLVKPTETLTLTCTVSGFSLSSYGVNWIRQPPGKALEWLAVIWGDGSTNYHSALISRLTISKDTSKSQVVLTMTNMDPVDTATYYCARNYFYGSRYGYAMDSWGQGTTVTVSS VL: DIQMTQSPSSLSASVGDRVTITCRASENIYSSLAWYQQKPGKAPKLLIYNAKTLIEGVPSRFSGSGSGTDFTLTISSLQPEDFATYYCQHHYGTPYTFGGGTKVEIK",2.73 nM

# Next, values leading:
row,Kd,Binder
1,1.31 nM,"h1722-007 (antibody, V domains shown, Only variable regions are tied to this name) VH: EVQLVQSGAEVKKPGSSVKVSCKASGGTFSDYWMHWVKQAPGQGLEWIGMLHPNSGTTSFNEKFKIRVTITIDKSTSTAYMELSSLRSEDTAVYYCASDYSGPFAYWGQGTLVTVSS VL: DIQMTQSPSSLSASVGDRVTITCSASSSVNYIHWYQQKPGKAPKRWIYDTSKLASGVPSRFSGSGSGTDFTLTISSLQPEDFATYYCQQWRSNPLTFGQGTKLEIK"
2,1 nM,"h1722-008 (antibody, V domains shown, Only variable regions are tied to this name) VH: EVQLVQSGAEVKKPGSSVKVSCKASGNTFSDYWMHWVKQAPGQGLEWIGMLHPNSGTTSFNEKFKIRTTITIDKSTSTAYMELSSLRSEDTAVYYCASDYSGPFAYWGQGTLVTVSS VL: DIQMTQSPSSLSASVGDRVTITCSASSSVNYIHWYQQKPGKAPKRWIYDTSKLASGVPSRFSGSGSGTDFTLTISSLQPEDFATYYCQQWRSNPLTFGQGTKLEIK"
3,2.01 nM,"h1721-009 (antibody, V domains shown, Only variable regions are tied to this name) VH: EVTLKESGPVLVKPTETLTLTCTVSGFSLSSYGVNWIRQPPGKALEWLAVIWGDGSTNYHSALISRLTISKDTSKSQVVLTMTNMDPVDTATYYCARNYFYGSRYGYAMDSWGQGTTVTVSS VL: DIQMTQSPSSLSASVGDRVTITCRASENIYSSLAWYQQKPGKSPKLLVYNAKTLIEGVPSRFSGSGSGTDYTLTISSLQPEDFATYYCQHHYGTPYTFGGGTKVEIK"
4,2.04 nM,"h1721-010 (antibody, V domains shown, Only variable regions are tied to this name) VH: EVTLKESGPVLVKPTETLTLTCTVSGFSLSSYGVNWIRQPPGKALEWLGVIWGDGSTNYHSALISRLTISKDTSKSQVVLTMTNMDPVDTATYYCAKNYFYGSRYGYAMDSWGQGTTVTVSS VL: DIQMTQSPSSLSASVGDRVTITCRASENIYSSLAWYQQKPGKSPKLLVYNAKTLIEGVPSRFSGSGSGTDYTLTISSLQPEDFATYYCQHHYGTPYTFGGGTKVEIK"
5,2.14 nM,"h1721-012 (antibody, V domains shown, also called h1721-0012) VH: EVTLKESGPVLVKPTETLTLTCTVSGFSLSSYGVNWVRQPPGKGLEWLGVIWGDGSTNYHSALISRLTISKDTSKSQVVLTLTNMDPVDTATYYCAKNYFYGSRYGYAMDSWGQGTTVTVSS VL: DIQMTQSPSSLSASVGDRVTITCRASENIYSSLAWYQQKPGKSPKLLVYNAKTLIEGVPSRFSGSGSGTDYTLTISSLQPEDFATYYCQHHYGTPYTFGGGTKVEIK"
6,2.2 nM,"h1721-002 (antibody, V domains shown, Only variable regions are tied to this name) VH: EVTLKESGPVLVKPTETLTLTCTVSGFSLSSYGVNWIRQPPGKALEWLGVIWGDGSTNYHSALISRLTISKDTSKSQVVLTMTNMDPVDTATYYCAKNYFYGSRYGYAMDSWGQGTTVTVSS VL: DIQMTQSPSSLSASVGDRVTITCRASENIYSSLAWYQQKPGKAPKLLIYNAKTLIEGVPSRFSGSGSGTDFTLTISSLQPEDFATYYCQHHYGTPYTFGGGTKVEIK"
7,2 nM,"h1721-004 (antibody, V domains shown, Only variable regions are tied to this name) VH: EVTLKESGPVLVKPTETLTLTCTVSGFSLSSYGVNWVRQPPGKGLEWLGVIWGDGSTNYHSALISRLTISKDTSKSQVVLTLTNMDPVDTATYYCAKNYFYGSRYGYAMDSWGQGTTVTVSS VL: DIQMTQSPSSLSASVGDRVTITCRASENIYSSLAWYQQKPGKAPKLLIYNAKTLIEGVPSRFSGSGSGTDFTLTISSLQPEDFATYYCQHHYGTPYTFGGGTKVEIK"
8,2.12 nM,"h1721-011 (antibody, V domains shown, Only variable regions are tied to this name) VH: EVTLKESGPVLVKPTETLTLTCTVSGFSLSSYGVNWIRQPPGKALEWLGVIWGDGSTNYHSALISRLTISKDTSKSQVVLTLTNMDPVDTATYYCAKNYFYGSRYGYAMDSWGQGTTVTVSS VL: DIQMTQSPSSLSASVGDRVTITCRASENIYSSLAWYQQKPGKSPKLLVYNAKTLIEGVPSRFSGSGSGTDYTLTISSLQPEDFATYYCQHHYGTPYTFGGGTKVEIK"
